According to PMC9768791 (2022):
Values belong to the binder of their own block, whether it stands above or below them.

Legend:
Test in all cases: activation reporter or marker
[1] = biological target: T1, GALNT2p.L14R peptide on HLA-B*35:01 (human)
T1 peptide: FAFRWVLGIAY

[2] = biological target: T2, CEBPZp.S100F peptide on HLA-A*24:02 (human)
T2 peptide: KYTKAFLV

[3] = biological target: T3, TENM4p.E1133D peptide on HLA-C*05:01 (human)
T3 peptide: LSDAFVSV

[4] = biological target: T4, PPP5Cp.E428K peptide on HLA-A*24:02 (human)
T4 peptide: DYIIRSHKV

[5] = biological target: T5, STRADAp.M189V peptide on HLA-C*07:01 (human)
T5 peptide: KALDYIHHV

[6] = biological target: T6, CLSTN1p.L289M peptide on HLA-C*03:03 (human)
T6 peptide: LAVFPNIHM

[7] = biological target: T7, ICKp.P591T peptide on HLA-B*39:01 (human)
T7 peptide: MRTHPGRPFF

[8] = biological target: T8, PDS5Bp.L203V peptide on HLA-A*02:01 (human)
T8 peptide: LLDTVLVNV

[9] = biological target: T9, CLSTN1p.L289M peptide on HLA-B*35:01 (human)
T9 peptide: FPNIHMETC

[10] = biological target: T10, VPS13Bp.G2602E peptide on HLA-A*02:01 (human)
T10 peptide: FVNLEQHVV

[11] = biological target: T11, UGGT2p.L880V peptide on HLA-C*12:02 (human)
T11 peptide: FVGPLDEDF

[12] = biological target: T12, PREPp.G384A peptide on HLA-B*35:01 (human)
T12 peptide: FPLDVGSIVAY

[13] = biological target: T13, SVILp.E1748D peptide on HLA-A*02:01 (human)
T13 peptide: RQFDITSVSV

[14] = biological target: T14, MTHFRp.R238H peptide on HLA-B*40:01 (human)
T14 peptide: FEADTFFHFV

[15] = biological target: T15, ICKp.P591T peptide on HLA-C*12:02 (human)
T15 peptide: RTHPGRPFF

[16] = biological target: T16, STRADAp.M189V peptide on HLA-A*01:01 (human)
T16 peptide: ALDYIHHVGYV

[17] = biological target: T17, GPSM2p.D77A peptide on HLA-C*03:03 (human)
T17 peptide: YLHAYAKAL

[18] = biological target: T18, UAP1p.H469Y peptide on HLA-A*02:01 (human)
T18 peptide: ITADVNYNL

- binding result [1]: recognises
B1: TCR802 (TCR, V domains shown)
Valpha: AQSVSQHNHHVILSEAASLELGCNYSYGGTVNLFWYVQYPGQHLQLLLKYFSGDPLVKGIKGFEAEFIKSKFSFNLRKPSVQWSDTAEYFCAVNLLTDSWGKFQFGAGTQVVVTP
Vbeta: EPEVTQTPSHQVTQMGQEVILRCVPISNHLYFYWYRQILGQKVEFLVSFYNNEISEKSEIFDDQFSVERPDGSNFTLKIRSTKLEDSAMYFCATMGSGGNEQFFGPGTRLTVL

- binding result [2]: recognises
B2: TCR445 (TCR, V domains shown)
Valpha: AQTVTQSQPEMSVQEAETVTLSCTYDTSESDYYLFWYKQPPSRQMILVIRQEAYKQQNATENRFSVNFQKAAKSFSLKISDSQLGDAAMYFCASSRWGGSEKLVFGKGTKLTVNP
Vbeta: DSGVTQTPKHLITATGQRVTLRCSPRSGDLSVYWYQQSLDQGLQFLIQYYNGEERAKGNILERFSAQQFPDLHSELNLSSLELGDSALYFCASSDSRTGGTDTQYFGPGTRLTVL

- binding result [3]: recognises
B3: TCR707 (TCR, V domains shown)
Valpha: QKEVEQNSGPLSVPEGAIASLNCTYSDRGSQSFFWYRQYSGKSPELIMSIYSNGDKEDGRFTAQLNKASQYVSLLIRDSQPSDSATYLCAVNVFNKFYFGSGTKLNVKP
Vbeta: DAGVIQSPRHEVTEMGQEVTLRCKPISGHDYLFWYRQTMMRGLELLIYFNNNVPIDDSGMPEDRFSAKMPNASFSTLKIQPSEPRDSAVYFCASSFLITDTQYFGPGTRLTVL

- binding result [4]: recognises
B4: TCR536 (TCR, V domains shown)
Valpha: AQSVAQPEDQVNVAEGNPLTVKCTYSVSGNPYLFWYVQYPNRGLQFLLKYITGDNLVKGSYGFEAEFNKSQTSFHLKKPSALVSDSALYFCAVSPLTSGTYKYIFGTGTRLKVLA
Vbeta: SQTIHQWPATLVQPVGSPLSLECTVEGTSNPNLYWYRQAAGRGLQLLFYSVGIGQISSEVPQNLSASRPQDRQFILSSKKLLLSDSGFYLCAWSEGDETQYFGPGTRLLVL

- binding result [5]: recognises
B5: TCR827 (TCR, V domains shown)
Valpha: GQQVMQIPQYQHVQEGEDFTTYCNSSTTLSNIQWYKQRPGGHPVFLIQLVKSGEVKKQKRLTFQFGEAKKNSSLHITATQTTDVGTYFCAAPDAGGTSYGKLTFGQGTILTVHP
Vbeta: NAGVTQTPKFQVLKTGQSMTLQCAQDMNHEYMSWYRQDPGMGLRLIHYSVGAGITDQGEVPNGYNVSRSTTEDFPLRLLSAAPSQTSVYFCASSPLNPYNEQFFGPGTRLTVL

- binding result [6]: recognises
B6: TCR696 (TCR, V domains shown)
Valpha: AQSVTQLDSHVSVSEGTPVLLRCNYSSSYSPSLFWYVQHPNKGLQLLLKYTSAATLVKGINGFEAEFKKSETSFHLTKPSAHMSDAAEYFCVVSAPDTGRRALTFGSGTRLQVQP
Vbeta: GAGVSQSPSNKVTEKGKDVELRCDPISGHTALYWYRQSLGQGLEFLIYFQGNSAPDKSGLPSDRFSAERTGGSVSTLTIQRTQQEDSAVYLCASSSGQGFTDTQYFGPGTRLTVL

- binding result [7]: recognises
B7: TCR687 (TCR, V domains shown)
Valpha: AQSVTQLGSHVSVSEGALVLLRCNYSSSVPPYLFWYVQYPNQGLQLLLKYTSAATLVKGINGFEAEFKKSETSFHLTKPSAHMSDAAEYFCAVTDSNYQLIWGAGTKLIIKP
Vbeta: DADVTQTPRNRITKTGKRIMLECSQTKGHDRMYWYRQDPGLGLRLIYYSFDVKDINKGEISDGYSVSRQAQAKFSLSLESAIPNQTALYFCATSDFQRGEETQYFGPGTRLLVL

- binding result [8]: recognises
B8: TCR447 (TCR, V domains shown)
Valpha: EDQVTQSPEALRLQEGESSSLNCSYTVSGLRGLFWYRQDPGKGPEFLFTLYSAGEEKEKERLKATLTKKESFLHITAPKPEDSATYLCAVHHLNRDDKIIFGKGTRLHILP
Vbeta: DSGVTQTPKHLITATGQRVTLRCSPRSGDLSVYWYQQSLDQGLQFLIQYYNGEERAKGNILERFSAQQFPDLHSELNLSSLELGDSALYFCASSADLGTREQYFGPGTRLTVT

- binding result [9]: recognises
B9: TCR691 (TCR, V domains shown)
Valpha: GQSLEQPSEVTAVEGAIVQINCTYQTSGFYGLSWYQQHDGGAPTFLSYNALDGLEETGRFSSFLSRSDSYGYLLLQELQMKDSASYFCAVQAGTALIFGKGTTLSVSS
Vbeta: DTEVTQTPKHLVMGMTNKKSLKCEQHMGHRAMYWYKQKAKKPPELMFVYSYEKLSINESVPSRFSPECPNSSLLNLHLHALQPEDSALYLCASSQPGGGNTEAFFGQGTRLTVV

- binding result [10]: recognises
B10: TCR535 (TCR, V domains shown)
Valpha: AQKVTQAQTEISVVEKEDVTLDCVYETRDTTYYLFWYKQPPSGELVFLIRRNSFDEQNEISGRYSWNFQKSTSSFNFTITASQVVDSAVYFCALSTSMDSNYQLIWGAGTKLIIKP
Vbeta: EPEVTQTPSHQVTQMGQEVILRCVPISNHLYFYWYRQILGQKVEFLVSFYNNEISEKSEIFDDQFSVERPDGSNFTLKIRSTKLEDSAMYFCASSCWDRSTDTQYFGPGTRLTVL

- binding result [11]: recognises
B11: TCR682 (TCR, V domains shown)
Valpha: AQSVTQPDIHITVSEGASLELRCNYSYGATPYLFWYVQSPGQGLQLLLKYFSGDTLVQGIKGFEAEFKRSQSSFNLRKPSVHWSDAAEYFCAVAPDNYGQNFVFGPGTRLSVLP
Vbeta: DAMVIQNPRYQVTQFGKPVTLSCSQTLNHNVMYWYQQKSSQAPKLLFHYYDKDFNNEADTPDNFQSRRPNTSFCFLDIRSPGLGDAAMYLCATYSSGANVLTFGAGSRLTVL

- binding result [12]: recognises
B12: TCR692 (TCR, V domains shown)
Valpha: GEDVEQSLFLSVREGDSSVINCTYTDSSSTYLYWYKQEPGAGLQLLTYIFSNMDMKQDQRLTVLLNKKDKHLSLRIADTQTGDSAIYFCAERNGGATNKLIFGTGTLLAVQP
Vbeta: DTEVTQTPKHLVMGMTNKKSLKCEQHMGHRAMYWYKQKAKKPPELMFVYSYEKLSINESVPSRFSPECPNSSLLNLHLHALQPEDSALYLCASSQDRTGAYSPLHFGNGTRLTVT

- binding result [13]: recognises
B13: TCR441 (TCR, V domains shown)
Valpha: ILNVEQSPQSLHVQEGDSTNFTCSFPSSNFYALHWYRWETAKSPEALFVMTLNGDEKKKGRISATLNTKEGYSYLYIKGSQPEDSATYLCAPSKYNNNDMRFGAGTRLTVKP
Vbeta: DAGITQSPRHKVTETGTPVTLRCHQTENHRYMYWYRQDPGHGLRLIHYSYGVKDTDKGEVSDGYSVSRSKTEDFLLTLESATSSQTSVYFCAISGTEDGELFFGEGSRLTVL

- binding result [14]: recognises
B14: TCR814 (TCR, V domains shown)
Valpha: TQLLEQSPQFLSIQEGENLTVYCNSSSVFSSLQWYRQEPGEGPVLLVTVVTGGEVKKLKRLTFQFGDARKDSSLHITAAQPGDTGLYLCAGLLGDSGAGSYQLTFGKGTKLSVIP
Vbeta: DAGITQSPRHKVTETGTPVTLRCHQTENHRYMYWYRQDPGHGLRLIHYSYGVKDTDKGEVSDGYSVSRSKTEDFLLTLESATSSQTSVYFCAISESWMSSYNEQFFGPGTRLTVL

- binding result [15]: recognises
B15: TCR689 (TCR, V domains shown)
Valpha: GIQVEQSPPDLILQEGANSTLRCNFSDSVNNLQWFHQNPWGQLINLFYIPSGTKQNGRLSATTVATERYSLLYISSSQTTDSGVYFCAVVLSYNTDKLIFGTGTRLQVFP
Vbeta: DVKVTQSSRYLVKRTGEKVFLECVQDMDHENMFWYRQDPGLGLRLIYFSYDVKMKEKGDIPEGYSVSREKKERFSLILESASTNQTSMYLCASSLSPPGYLETQYFGPGTRLLVL

- binding result [16]: recognises
B16: TCR829 (TCR, V domains shown)
Valpha: QKEVEQDPGPLSVPEGAIVSLNCTYSNSAFQYFMWYRQYSRKGPELLMYTYSSGNKEDGRFTAQVDKSSKYISLFIRDSQPSDSATYLCAMSPTYSGAGSYQLTFGKGTKLSVIP
Vbeta: GAVVSQHPSWVICKSGTSVKIECRSLDFQATTMFWYRQFPKQSLMLMATSNEGSKATYEQGVEKDKFLINHASLTLSTLTVTSAHPEDSSFYICSASLLGEGYEQYFGPGTRLTVT

- binding result [17]: recognises
B17: TCR538 (TCR, V domains shown)
Valpha: ILNVEQSPQSLHVQEGDSTNFTCSFPSSNFYALHWYRWETAKSPEALFVMTLNGDEKKKGRISATLNTKEGYSYLYIKGSQPEDSATYLCAFDNYGQNFVFGPGTRLSVLP
Vbeta: DVKVTQSSRYLVKRTGEKVFLECVQDMDHENMFWYRQDPGLGLRLIYFSYDVKMKEKGDIPEGYSVSREKKERFSLILESASTNQTSMYLCASSLTGSFNEQFFGPGTRLTVL

- binding result [18]: recognises
B18: TCR798 (TCR, V domains shown)
Valpha: AQSVTQLDSQVPVFEEAPVELRCNYSSSVSVYLFWYVQYPNQGLQLLLKYLSGSTLVKGINGFEAEFNKSQTSFHLRKPSVHISDTAEYFCAVSYSGSARQLTFGSGTQLTVLP
Vbeta: DAGVIQSPRHEVTEMGQEVTLRCKPISGHNSLFWYRQTMMRGLELLIYFNNNVPIDDSGMPEDRFSAKMPNASFSTLKIQPSEPRDSAVYFCASNPGGRGEKLFFGSGTQLSVL
